Measured values published in patent publication US20200123576, “Platform for developing stable mammalian cell lines” (Icosagen Cell Factory OÜ, published 2020).

Target: BPV1 E2 protein (Bovine papillomavirus 1, UniProt P03122 P03122:1-410)
Assay: cell_activity
Conditions: chain copies: 2

Chain of BPV1 E2 protein (P03122 whole entry, one chain of several): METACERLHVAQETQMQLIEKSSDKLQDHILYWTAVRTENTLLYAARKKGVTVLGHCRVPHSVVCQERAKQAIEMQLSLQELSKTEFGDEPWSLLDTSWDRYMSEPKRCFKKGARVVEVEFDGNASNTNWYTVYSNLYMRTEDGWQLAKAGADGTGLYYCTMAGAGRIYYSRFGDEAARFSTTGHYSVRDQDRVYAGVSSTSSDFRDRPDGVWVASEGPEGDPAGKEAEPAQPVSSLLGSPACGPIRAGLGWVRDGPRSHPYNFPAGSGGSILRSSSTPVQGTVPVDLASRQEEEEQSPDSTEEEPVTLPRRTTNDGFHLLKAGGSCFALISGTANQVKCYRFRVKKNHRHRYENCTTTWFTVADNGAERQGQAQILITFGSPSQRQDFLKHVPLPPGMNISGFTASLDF

B1: BPV1 E2 binding sites (E2BS) (dsDNA)
DNA 1: ACCGTTGCCGGTCGGATCTGTACCGTTGCCGGTCGGATCTGTACCGTTGCCGGTCGGATCTGTACCGTTGCCGGTCGGATCTGTACCGTTGCCGGTCGGATCTGTACCGTTGCCGGTCGGATCTGTACCGTTGCCGGTCGGATCTGTACCGTTGCCGGTCGGATCTGTACCGTTGCCGGTC
DNA 2: GACCGGCAACGGTACAGATCCGACCGGCAACGGTACAGATCCGACCGGCAACGGTACAGATCCGACCGGCAACGGTACAGATCCGACCGGCAACGGTACAGATCCGACCGGCAACGGTACAGATCCGACCGGCAACGGTACAGATCCGACCGGCAACGGTACAGATCCGACCGGCAACGGT
For B1, which binding signal is on record?
The binding signal was roughly 3.5 fold.
